B1: PFD1, subunit of human Prefoldin (natural protein)
chain: MAAPVDLELKKAFTELQAKVIDTQQKVKLADIQIEQLNRTKKHAHLTDTEIMTLVDETNMYEGVGRMFILQSKEAIHSQLLEKQKIAEEKIKELEQKKSYLERSVKEAEDNIREMLMARRAQ
B2: PFD3, subunit of human Prefoldin (natural protein)
chain: MAAVKDSCGKGEMATGNGRRLHLGIPEAVFVEDVDSFMKQPGNETADTVLKKLDEQYQKYKFMELNLAQKKRRLKGQIPEIKQTLEILKYMQKKKESTNSMETRFLLADNLYCKASVPPTDKVCLWLGANVMLEYDIDEAQALLEKNLSTATKNLDSLEEDLDFLRDQFTTTEVNMARVYNWDVKRRNKDDSTKNKA
B3: TBCA (natural protein, UniProt O75347 1-108, looked up)
chain: MADPRVRQIKIKTGVVKRLVKEKVMYEKEAKQQEEKIEKMRAEDGENYDIKKQAEILQESRMMIPDCQRRLEAAYLDLQRILENEKDLEEAEEYKEARLVLDSVKLEA
B4: TBCB (natural protein, UniProt Q99426 1-244, looked up)
chain: MEVTGVSAPTVTVFISSSLNTFRSEKRYSRSLTIAEFKCKLELLVGSPASCMELELYGVDDKFYSKLDQEDALLGSYPVDDGCRIHVIDHSGARLGEYEDVSRVEKYTISQEAYDQRQDTVRSFLKRSKLGRYNEEERAQQEAEAAQRLAEEKAQASSIPVGSRCEVRAAGQSPRRGTVMYVGLTDFKPGYWIGVRYDEPLGKNDGSVNGKRYFECQAKYGAFVKPAVVTVGDFPEEDYGLDEI

What was measured:
Human α-tubulin (TUBA1B) [1] = molecular target: T1, Human α-tubulin (TUBA1B) (human, UniProt P68363 1-451); assay: cross-linking
Human β-tubulin (TBB5) [2] = molecular target: T2, Human β-tubulin (TBB5) (human, UniProt P07437 1-444); assay: cross-linking
Human β-tubulin (TBB5) [3] = molecular target: T2, Human β-tubulin (TBB5); assay: native gel or EMSA
Human α-tubulin (TUBA1B) [4] = molecular target: T1, Human α-tubulin (TUBA1B); assay: native gel or EMSA

T1 sequence (P68363 whole entry): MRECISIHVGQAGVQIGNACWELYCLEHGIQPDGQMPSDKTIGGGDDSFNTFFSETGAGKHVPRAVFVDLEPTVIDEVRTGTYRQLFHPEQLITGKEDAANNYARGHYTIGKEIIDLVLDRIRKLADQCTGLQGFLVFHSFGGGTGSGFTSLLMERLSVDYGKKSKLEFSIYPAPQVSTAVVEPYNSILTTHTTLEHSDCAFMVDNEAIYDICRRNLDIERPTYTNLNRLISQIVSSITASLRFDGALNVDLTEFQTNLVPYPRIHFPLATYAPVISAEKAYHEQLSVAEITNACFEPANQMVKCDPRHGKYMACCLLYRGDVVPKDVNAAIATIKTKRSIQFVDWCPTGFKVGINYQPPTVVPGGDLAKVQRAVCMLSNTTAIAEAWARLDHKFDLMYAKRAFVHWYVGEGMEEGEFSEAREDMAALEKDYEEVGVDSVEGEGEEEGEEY
T2 sequence (P07437 whole entry): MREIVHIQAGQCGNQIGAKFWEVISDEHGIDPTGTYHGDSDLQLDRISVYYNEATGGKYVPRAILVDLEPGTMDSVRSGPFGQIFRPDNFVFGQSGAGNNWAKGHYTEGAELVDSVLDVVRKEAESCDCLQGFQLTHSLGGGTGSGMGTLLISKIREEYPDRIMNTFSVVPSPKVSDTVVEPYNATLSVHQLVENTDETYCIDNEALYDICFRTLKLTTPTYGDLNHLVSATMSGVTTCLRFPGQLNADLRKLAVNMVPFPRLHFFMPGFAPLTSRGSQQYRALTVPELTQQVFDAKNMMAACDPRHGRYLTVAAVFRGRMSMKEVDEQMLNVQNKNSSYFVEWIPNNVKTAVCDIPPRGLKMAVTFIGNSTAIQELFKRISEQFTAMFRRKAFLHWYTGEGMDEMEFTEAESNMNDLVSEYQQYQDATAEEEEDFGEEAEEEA

Row | Binder | binding result (Human α-tubulin (TUBA1B) [1]) | binding result (Human β-tubulin (TBB5) [2]) | binding result (Human β-tubulin (TBB5) [3]) | binding result (Human α-tubulin (TUBA1B) [4])
1 | B1 | binds | binds | – | –
2 | B2 | binds | binds | – | –
3 | B3 | – | – | binds | –
4 | B4 | – | – | – | binds

— publication PMC9735246 (Cell, 2022)
